How the values were obtained:
[1] = biological target: T1, CLDN18.2 (species not stated); experiment: affinity measurement, method not described
T1 construct: whole, on cells; the form of the antigen in the ka/kd/KD measurement is not described; also called CLDN18.2过表达细胞; claudin18.2

[2] = biological target: T1, CLDN18.2 (species not stated at that …); experiment: flow cytometry on CLDN18.2-overexpressing cells, MFI against antibody concentration

Kd [1]: 5.24 nM
koff [1]: 0.00172 s⁻¹
kon [1]: 328000 M⁻¹ s⁻¹
EC50 [2]: 0.62 µg/mL
B1: 全人源抗CLDN18.2抗体2A2 (CLDN-BC-2A2-hH1) (antibody, V domains shown)
VH: QVQLQQWGPGLVKPSQTLSLTCTVSGGSISSVGYYWSWIRQHPGQGLEWVGYIYYSGGTYYNPSLKSRVTISLDTSKNQFSLKLTSVTAADTAVYYCASYGSVSPYYYYYGMDVWGQGTTVTVSS
VL: DIVMTQSPSSVSASVGDRVTITCRASQGISSWLAWYQQKPGKAPNLLISAASSLQSGVPSRFSGNGSGTDFTLTISSLQPEDFASYYCQQANSFPITFGQGTRLEIK
notes: The label 2A2-hIgG1 points to a human IgG1 full antibody; Made by transient expression in ExpiCHO; also called CLN-2A2-hH1; 2A2-hIgG1
